B1: Docking protein 3 (Homo sapiens), Q7L591 (parent)
chain: MTRGARLRSDARAQLNQLSLDGGTGSGQKGKCEEFPSSLSSVSPGLEAAALLLAVTMDPLETPIKDGILYQQHVKFGKKCWRKVWALLYAGGPSGVARLESWEVRDGGLGAAGDRSAGPGRRGERRVIRLADCVSVLPADGESCPRDTGAFLLTTTERSHLLAAQHRQAWMGPICQLAFPGTGEASSGSTDAQSPKRGLVPMEENSIYSSWQEVGEFPVVVQRTEAATRCQLKGPALLVLGPDAIQLREAKGTQALYSWPYHFLRKFGSDKGVFSFEAGRRCHSGEGLFAFSTPCAPDLCRAVAGAIARQRERLPELTRPQPCPLPRATSLPSLDTPGELREMPPGPEPPTSRKMHLAEPGPQSLPLLLGPEPNDLASGLYASVCKRASGPPGNEHLYENLCVLEASPTLHGGEPEPHEGPGSRSPTTSPIYHNGQDLSWPGPANDSTLEAQYRRLLELDQVEGTGRPDPQAGFKAKLVTLLSRERRKGPAPCDRP
partner: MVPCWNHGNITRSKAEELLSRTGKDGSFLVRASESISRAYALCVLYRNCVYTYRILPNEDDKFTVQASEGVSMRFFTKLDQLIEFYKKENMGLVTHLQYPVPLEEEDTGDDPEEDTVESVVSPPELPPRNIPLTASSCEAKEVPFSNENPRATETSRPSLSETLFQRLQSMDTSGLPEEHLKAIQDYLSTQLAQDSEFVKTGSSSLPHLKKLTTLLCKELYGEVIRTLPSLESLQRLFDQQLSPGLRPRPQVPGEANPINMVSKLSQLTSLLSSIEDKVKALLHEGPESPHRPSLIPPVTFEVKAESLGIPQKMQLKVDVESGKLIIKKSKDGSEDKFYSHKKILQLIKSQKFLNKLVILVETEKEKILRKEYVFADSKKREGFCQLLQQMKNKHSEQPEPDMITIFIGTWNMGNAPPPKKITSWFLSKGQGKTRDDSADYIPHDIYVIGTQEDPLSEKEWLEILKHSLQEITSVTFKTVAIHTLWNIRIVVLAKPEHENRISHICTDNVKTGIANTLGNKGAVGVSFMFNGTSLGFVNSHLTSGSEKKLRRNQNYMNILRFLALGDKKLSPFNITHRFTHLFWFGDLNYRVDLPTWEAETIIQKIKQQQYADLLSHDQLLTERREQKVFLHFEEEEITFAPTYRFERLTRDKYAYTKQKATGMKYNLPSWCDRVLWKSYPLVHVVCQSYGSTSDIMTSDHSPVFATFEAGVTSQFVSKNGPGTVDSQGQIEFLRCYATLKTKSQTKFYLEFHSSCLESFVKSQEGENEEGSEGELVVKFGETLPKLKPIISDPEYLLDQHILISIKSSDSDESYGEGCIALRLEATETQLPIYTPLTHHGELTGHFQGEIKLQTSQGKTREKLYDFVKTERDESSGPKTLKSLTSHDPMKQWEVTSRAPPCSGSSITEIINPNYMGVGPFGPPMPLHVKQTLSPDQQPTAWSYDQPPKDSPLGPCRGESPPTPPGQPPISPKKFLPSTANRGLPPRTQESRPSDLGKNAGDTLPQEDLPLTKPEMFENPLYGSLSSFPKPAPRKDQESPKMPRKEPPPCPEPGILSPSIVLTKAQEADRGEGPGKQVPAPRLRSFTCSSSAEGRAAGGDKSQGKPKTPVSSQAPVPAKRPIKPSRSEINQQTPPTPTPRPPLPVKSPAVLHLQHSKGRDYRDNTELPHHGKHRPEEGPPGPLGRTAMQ

Variants of: B1
Details: with ship1_human INPP5D

Row | Variant | effect of a mutation on the interaction
1 | R197F | decreasing interaction
